Data on two molecules can be found in doi:10.1101/2022.10.06.511153 (bioRxiv, 2022).

By Kd is commonly meant the free concentration of one partner at which half of the binding sites on the other are occupied at equilibrium, for simple one-to-one binding. A higher Kd goes with lower affinity. For orientation: stoichiometry N means a count of units in the complex or per binding partner.

The target of series [1] is MksB (Corynebacterium glutamicum) (UniProt Q8NLY2). Description: BLI.
The target of series [2] is MksE (Corynebacterium glutamicum) (UniProt Q8NLY1). Description: BLI.
Series [3] deals with the molecule itself. Description: crystal structure.

“MksF (from UniProt Q8NLY0 1-495) (natural protein)”: the Kd worked out at 4.94 µM in series [1] and 2.17 µM in series [2].

B1: MksG (6xHis-SUMO construct for crystallization) (natural protein, Corynebacterium glutamicum)
chain: MPLFIDDALHRSKKYFHAHLSELLLGEFAGLSLPLHPPTAAKAAADIDATREFIRQWEGRDDVEYAIRNWSPVGLGKTEVPVRLTLNTTEELVVFAQVEDEWSSLHERFSQLSGFTAEVVAKHVSLWRSLSNDDLSKAVLVVDWFLKHPNSGLLKRAVAVEGVHTKWLENHRVLIETLVADKRGEPGRADLGLGDAEARVRLRFHSVDAPAGLTDIEVPLSNLCELQEPQVILMVENLDSFLALPTWPGVTIAWGAGYRAVDIVRGPYFSNGRLLYWGDLDLDGFKILDGVRSHVPHTESVLMNSETVSRWRYLGVADREFKAESFDNLHDFESDALDLLITDGELRIEQERIRLDVAVEEIEKVIRG
Take B1: the “stoichiometry N” value in series [3] was found to be 2.
